Groups on a side chain read outwards from the residue. *: point of attachment. cholesteroyl = cholesterol group linked to a cysteine residue via the side-chain thiol; Succinimide(1-Et,3-yl) = CCN1C(=O)CC(*)C1=O
T1: dog NMUR1-ATG (dog, UniProt A0A8I3S7S8 1-422)
T1 sequence: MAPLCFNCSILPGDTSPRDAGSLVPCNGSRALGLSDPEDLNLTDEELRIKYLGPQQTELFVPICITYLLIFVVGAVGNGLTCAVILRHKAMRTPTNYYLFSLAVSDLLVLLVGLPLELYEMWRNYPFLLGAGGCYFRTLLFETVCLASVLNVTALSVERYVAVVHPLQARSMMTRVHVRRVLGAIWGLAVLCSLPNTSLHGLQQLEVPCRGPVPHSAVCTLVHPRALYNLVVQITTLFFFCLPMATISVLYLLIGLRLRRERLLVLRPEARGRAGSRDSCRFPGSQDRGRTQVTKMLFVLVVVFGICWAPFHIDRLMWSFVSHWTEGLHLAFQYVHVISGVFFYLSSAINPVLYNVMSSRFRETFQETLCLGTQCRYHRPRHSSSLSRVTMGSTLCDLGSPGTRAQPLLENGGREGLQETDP

T2: mouse NMUR1-ATG (mouse, UniProt O55040 1-428)
T2 sequence (looked up): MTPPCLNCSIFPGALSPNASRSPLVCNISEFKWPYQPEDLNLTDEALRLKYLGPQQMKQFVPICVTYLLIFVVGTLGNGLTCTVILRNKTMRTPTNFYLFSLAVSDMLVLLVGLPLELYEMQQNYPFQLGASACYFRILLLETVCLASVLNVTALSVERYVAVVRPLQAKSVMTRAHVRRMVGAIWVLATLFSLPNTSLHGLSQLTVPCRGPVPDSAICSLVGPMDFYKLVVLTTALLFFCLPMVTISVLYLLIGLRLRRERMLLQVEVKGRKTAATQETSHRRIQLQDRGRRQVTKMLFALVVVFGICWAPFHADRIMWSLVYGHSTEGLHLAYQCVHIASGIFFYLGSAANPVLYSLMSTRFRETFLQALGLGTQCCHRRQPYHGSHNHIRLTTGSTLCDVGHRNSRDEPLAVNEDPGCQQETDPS

T3: human NMUR1 (human, UniProt Q9HB89 1-426)
T3 sequence (looked up): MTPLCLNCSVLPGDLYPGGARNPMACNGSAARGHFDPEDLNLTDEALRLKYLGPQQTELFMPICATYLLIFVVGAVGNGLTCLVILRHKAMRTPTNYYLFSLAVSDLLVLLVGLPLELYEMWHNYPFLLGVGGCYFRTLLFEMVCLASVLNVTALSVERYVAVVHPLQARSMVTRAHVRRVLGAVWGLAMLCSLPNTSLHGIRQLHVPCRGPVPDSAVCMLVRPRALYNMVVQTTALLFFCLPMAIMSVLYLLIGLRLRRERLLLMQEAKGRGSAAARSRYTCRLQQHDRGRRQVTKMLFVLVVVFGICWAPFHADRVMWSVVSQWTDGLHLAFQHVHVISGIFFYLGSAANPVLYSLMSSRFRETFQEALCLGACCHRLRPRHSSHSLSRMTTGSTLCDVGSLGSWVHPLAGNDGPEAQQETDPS


Tests used:
Assay in all cases: cell-based or functional assay
[1] = target: dog NMUR2 (dog)
[2] = target: T1, dog NMUR1-ATG
[3] = target: T2, mouse NMUR1-ATG
[4] = target: mouse NMUR2 (mouse, UniProt Q8BZ39 1-395)
[5] = target: T3, human NMUR1
[6] = target: human NMUR2 (human, UniProt Q9GZQ4 1-415)
Sequence of human NMUR2 (Q9GZQ4 whole entry): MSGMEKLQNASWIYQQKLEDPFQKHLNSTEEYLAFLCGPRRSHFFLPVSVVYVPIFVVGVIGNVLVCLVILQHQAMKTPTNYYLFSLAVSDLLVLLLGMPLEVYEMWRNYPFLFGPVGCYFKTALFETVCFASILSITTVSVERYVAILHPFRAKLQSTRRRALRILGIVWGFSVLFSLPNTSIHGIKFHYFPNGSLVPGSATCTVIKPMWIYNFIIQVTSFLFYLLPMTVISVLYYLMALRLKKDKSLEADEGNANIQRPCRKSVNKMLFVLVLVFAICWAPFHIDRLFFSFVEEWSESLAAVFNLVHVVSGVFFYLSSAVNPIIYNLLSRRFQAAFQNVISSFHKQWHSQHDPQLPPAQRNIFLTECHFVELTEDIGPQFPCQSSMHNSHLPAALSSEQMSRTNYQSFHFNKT

Sequence of mouse NMUR2 (Q8BZ39 whole entry): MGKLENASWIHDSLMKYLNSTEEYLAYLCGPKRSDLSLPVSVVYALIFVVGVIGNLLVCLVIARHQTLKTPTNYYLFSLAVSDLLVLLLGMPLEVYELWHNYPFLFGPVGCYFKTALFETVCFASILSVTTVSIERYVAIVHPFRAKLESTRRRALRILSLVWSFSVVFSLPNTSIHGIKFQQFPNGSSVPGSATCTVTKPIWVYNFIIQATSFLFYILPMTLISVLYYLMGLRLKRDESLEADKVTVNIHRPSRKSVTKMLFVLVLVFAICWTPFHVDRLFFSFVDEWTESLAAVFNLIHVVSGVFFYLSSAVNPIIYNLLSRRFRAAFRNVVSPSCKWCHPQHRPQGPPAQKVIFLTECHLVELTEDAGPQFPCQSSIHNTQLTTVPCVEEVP

Row | % Activity (maximum response at 1 µM compared to the human NMU-25 response) [1] [%] | % Activity (maximum response at 1 µM compared to the human NMU-25 response) [2] [%] | % Activity (maximum response at 1 µM compared to the human NMU-25 response) [3] [%] | % Activity (maximum response at 1 µM compared to the human NMU-25 response) [4] [%] | % Activity (maximum response at 1 µM compared to the human NMU-25 response) [5] [%] | % Activity (maximum response at 1 µM compared to the human NMU-25 response) [6] [%] | Binder
1 | 107 | 101 | 98 | 108 | 97 | 105 | Ac-C(Succinimide(1-Et,3-yl))ILQRGSGTAAVDFTKKDHTATWGRPFFLFRPRN-NH2 (SMILES CC[C@H](C)[C@H](NC(=O)[C@H](CSC1CC(=O)N(CC)C1=O)NC(C)=O)C(=O)N[C@@H](CC(C)C)C(=O)N[C@@H](CCC(N)=O)C(=O)N[C@@H](CCCNC(=N)N)C(=O)NCC(=O)N[C@@H](CO)C(=O)NCC(=O)N[C@H](C(=O)N[C@@H](C)C(=O)N[C@@H](C)C(=O)N[C@H](C(=O)N[C@@H](CC(=O)O)C(=O)N[C@@H](Cc1ccccc1)C(=O)N[C@H](C(=O)N[C@@H](CCCCN)C(=O)N[C@@H](CCCCN)C(=O)N[C@@H](CC(=O)O)C(=O)N[C@@H](Cc1c[nH]cn1)C(=O)N[C@H](C(=O)N[C@@H](C)C(=O)N[C@H](C(=O)N[C@@H](Cc1c[nH]c2ccccc12)C(=O)NCC(=O)N[C@@H](CCCNC(=N)N)C(=O)N1CCC[C@H]1C(=O)N[C@@H](Cc1ccccc1)C(=O)N[C@@H](Cc1ccccc1)C(=O)N[C@@H](CC(C)C)C(=O)N[C@@H](Cc1ccccc1)C(=O)N[C@@H](CCCNC(=N)N)C(=O)N1CCC[C@H]1C(=O)N[C@@H](CCCNC(=N)N)C(=O)N[C@@H](CC(N)=O)C(N)=O)[C@@H](C)O)[C@@H](C)O)[C@@H](C)O)C(C)C)[C@@H](C)O) [NMS3 (Ac-C1ILQRGSGTAAVDFTKKDHTATWGRPFFLFRPRN-CONH2)]
2 | 78 | 97 | 82 | 99 | 91 | 81 | Ac-C([maleimide-(PEG)2 40 kDa])ILQRGSGTAAVDFTKKDHTATWGRPFFLFRPRN-NH2 [NMS1 (Ac-C2ILQRGSGTAAVDFTKKDHTATWGRPFFLFRPRN-CONH2)]
3 | 100 | 82 | 83 | 78 | 85 | 93 | ILQRGSGTAAVDFTKKDHTATWGRPFFLFRPRN (HELM PEPTIDE1{[CCCCCCCCCCCCCCCC(=O)[*:2]].I.L.Q.R.G.S.G.T.A.A.V.D.F.T.K.K.D.H.T.A.T.W.G.R.P.F.F.L.F.R.P.R.N.[am]}$$$$V2.0; SMILES CCCCCCCCCCCCCCCC(=O)N[C@H](C(=O)N[C@@H](CC(C)C)C(=O)N[C@@H](CCC(N)=O)C(=O)N[C@@H](CCCNC(=N)N)C(=O)NCC(=O)N[C@@H](CO)C(=O)NCC(=O)N[C@H](C(=O)N[C@@H](C)C(=O)N[C@@H](C)C(=O)N[C@H](C(=O)N[C@@H](CC(=O)O)C(=O)N[C@@H](Cc1ccccc1)C(=O)N[C@H](C(=O)N[C@@H](CCCCN)C(=O)N[C@@H](CCCCN)C(=O)N[C@@H](CC(=O)O)C(=O)N[C@@H](Cc1c[nH]cn1)C(=O)N[C@H](C(=O)N[C@@H](C)C(=O)N[C@H](C(=O)N[C@@H](Cc1c[nH]c2ccccc12)C(=O)NCC(=O)N[C@@H](CCCNC(=N)N)C(=O)N1CCC[C@H]1C(=O)N[C@@H](Cc1ccccc1)C(=O)N[C@@H](Cc1ccccc1)C(=O)N[C@@H](CC(C)C)C(=O)N[C@@H](Cc1ccccc1)C(=O)N[C@@H](CCCNC(=N)N)C(=O)N1CCC[C@H]1C(=O)N[C@@H](CCCNC(=N)N)C(=O)N[C@@H](CC(N)=O)C(N)=O)[C@@H](C)O)[C@@H](C)O)[C@@H](C)O)C(C)C)[C@@H](C)O)[C@@H](C)CC) [NMS5 (Pam-ILQRGSGTAAVDFTKKDHTATWGRPFFLFRPRN-CONH2)]
4 | 104 | 100 | 102 | 111 | 97 | 107 | H-ILQRGSGTAAVDFTKKDHTATWGRPFFLFRPRN-NH2 [native human Neuromedin S peptide (NMS)]
5 | 84 | 46 | 39 | 32 | 11 | 16 | Ac-C(cholesteroyl)ILQRGSGTAAVDFTKKDHTATWGRPFFLFRPRN-NH2 [NMS2 (Ac-C3ILQRGSGTAAVDFTKKDHTATWGRPFFLFRPRN-CONH2)]
6 | 101 | 81 | 95 | 104 | 88 | 94 | Ac-C([maleimide-PEG 40 kDa])ILQRGSGTAAVDFTKKDHTATWGRPFFLFRPRN-NH2 [NMS4 (Ac-C4ILQRGSGTAAVDFTKKDHTATWGRPFFLFRPRN-CONH2)]

Source: patent US20110301079A1 (INSTITUTO DI RICERCHE DI BIOLOGIA MOLECOLARE P ANGELETTI S …, published 2011)
